Test results as given in the nanobody polyreactivity screen of Harvey et al. (2022).

Assay: yeast display, Sf9 membrane polyspecificity reagent, FACS + sequencing; frameworks hold sequencing errors
In short: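 A synthetic nanobody library was expressed on Saccharomyces cerevisiae BJ5465 by galactose induction for 36–48 hours. The library was stained for 1 hour at 4 °C with 10% biotinylated, detergent-solubilized Sf9 membrane reagent and enriched with streptavidin microbeads before FACS. Low and high (top ~1%) gates were set on anti-HA fluorescence for expression and streptavidin fluorescence for reagent binding, and each polyreactivity label reflects the gate of origin.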

Sequence	polyreactivity (PSR sort gate)
QVQLVESGGGLVQAGGSLRLSCAASGIIFYPYTMGWYRQAPGKERELVAAINSGGSTYYADSVKGRFTISRDNAKNTVYLQMNSLKPEDTAVYYCAAEANRYSSGYDYWGQGTQVTVTS	low polyreactivity
QVQLVESGGGLVQAGGSLRLSCAASGRTFRYNAMGWYRQAPGKERELVAGIRWSGDRTYYADSVKGRFTISRDNAKNTVYLQMNSLKPEDTAVYYCNKVYHPGYGVRATYDYWGQGTQVTVSS	high polyreactivity
QVQLVESGGGLVQAGGSLRLSCAASGYIFFRNAMGWYRQAPGKEREFVAAIRFSGGNTYYADSVKGRFTISRDNAKNTVYLQMNSLKPEDTAFYYCAADKVRQGHYWTPMEYWGQGTQVTVSS	low polyreactivity
QVQHVESGGGLVQAGGSLRLSCAASGGIFSIYTRGWYRQAPGKERELVAAITSGGNTNYADSVKGRFTISRDNAKNTVYLQMNSLKPEDTAVYYCAKTYTEYSVTRSGARMDYWGQGTQVTVSS	low polyreactivity
QVQNVESGGGLVQAGGSLRLICAASGSIFDPYAMGRYRQAPGKEMELVAAIRKRGSSTYYADSVKGRFTISRDNAKYTVYLQMNSLKPEDTAVYYCAATWVSVWYRYDYWGQGTQVTVSA	high polyreactivity
QVQLVESGGCLVQAGGSLRLSCYASGIIFAWYAMGWYRQAPGKERQLVAAISYSGCTTYYADSVKWRFTISRDNAKNTVYFKMNSLKPVDTAVYYCAALLHHFFTYDYWGQGTQVTVSS	low polyreactivity
QVQLVESGGGLVQAGGSLRLSCAASGSIFDAYAMGWYRQAPGKERELVAGITSGGSTNYADSVKGRFTISRDNAKNSVYLQMNSLKPEDTAVYYCAAQCDYANIYLIFNYWGQGTQVTVSS	low polyreactivity
QVQLVESGGGLVQAGGSLRLSCAASGRTFAFYGMGWYRQAPGKERELVATIRGTGGSTYYADSVKGRFTISRDNAKNTVYLQMNSLKPEDTAVYYCNKYLGIQVGSVPHDYWGQGSQVTVSS	high polyreactivity
QVQLVESGGGLVQAGGSLRLSCAASGFTFNDYAMGWYRQAPGKEWELVAAIDWSGGRTYYADSVKGRFTISRDNAKNTVYLQMNSLKAEDTAVYYFAAVLYSRLYWYRLDYWGQGTQVTVSS	low polyreactivity
QVQLVESGGGLVQAGGSLRLSCAASGLTFNHNAMGWYRQAPGKERELVAAISRRGGSTYYADSVKGRFTISRDNAKNTVYLQMNSLKPEDTAVYYCNAPVKVRATTNWEYDYWGQGTQVTVSS	high polyreactivity
QVQLVESGGGLVQAGGSLRLSCAASGSTFSTNVMGWSRQAPGKERELVAAISTIGGSTYADSVKGRFTISRDNAKNSVYLQMNSLKPEDTAVYDCAATRRWYPTKLYGYWGQGTQVTVSS	high polyreactivity
QVQLVESGGGLVQAGGSLRLSCAASGSTFVYYTMGWYRQAPGKERELVATITYGGGSTYYADSVKGRFTISRDNAKNTVYLQMNSLKPEVTAVYYCAARPSWVRKMYYWGQGTQVTVSS	high polyreactivity
QVQLVESGGGLVQAGGSLRLSCAPSGSILWLNAMGWYRQAPGKERELVADITRGGSTYYADSVKGRFTISRDNAKNTVYLQMNSLKPEDTAVYYCAAKRGKTYQRFDYWGQGTQVTVSS	high polyreactivity
QVQLVESGGGLVQAGGSLRLSCAASGRIFNAYAMGWYRQAPGKERELVAAISSIGGRTYYADSVKGRFTISRDNAKNTDYLQMNSLKPEDTAVYYCAASRRSRQYRYDYWGQGTQVTVSS	high polyreactivity
QVQLVESGGGLVQAGGSLRLSCAASGFTFYQYAMGWYRQAPGKERELVASISWSGGRTYYADSVKGRFTISRDNAKKTVYFQKNSLKPEDTAVYYCAARAYRIAGYDYWGQGTQVTVSS	high polyreactivity
QVQLVESGGGLVQAGGSLRLSCAASGNTFGGYAMGWYRQAPGKERELVATISYADSVKGRFTISRDNAKNTVYLQMNSLKPEDTAVYYCNKQFGYPWEYYSYSYDYWGQGTQVTVSS	low polyreactivity
QVQLVESGGGLVQAGGSLRLSCAASGSTFYRNAMGWYRQAPGKEREFVAAITTDDSTYYADSVKGRFTISRDNAKNTVYVQMNSLKPEDTAVYYCAAGLEGKATWAAVGGYDYWGQGTQVTVSS	low polyreactivity
QVQLVESGGGLVQAGGSLRLSCAASGFTFTKYAMGWYRQAPGKERELVAAISGRGGSTYYADSVKGRFTISRDNAKNTVYLQMNRLKPEDTAVYYCAKYLYTVAGYNYWGQGTQVTVSS	high polyreactivity
QDQHVESGGGLVQAGGSLRLSCSATGRIFTSYVMGWYRQPQGKERQLVAAITRSGGSTYYADSVKVRFTISRDTAKNTVYLQMKSLIPVDTAVYYCNALTRLQIGGEGGGYWGKGTQVTVSS	high polyreactivity
QVQLVESGGGLVQAGGSLRLSCAASGSIFYVNAMGWYRQAPGKEREFVADITWSSGGRTYYADSVKGRFTISRDNAKNTVYLQMNSLKPDDTAVYYCAAPRYYYYSYDYWGQGTQVTVSS	high polyreactivity
QVHHVDSGGGLVQAGGTLRLSIPASGRTFQYYTMGWYRQPPGKERELVAAIRRGGSTYYADSVKGRFSISRDNAKNTVYLQLNILKPEDTAVYYCADLYAYSLTARGMEYWGQGTQVTVSS	high polyreactivity
QVQLVESGGGLVQAGGSLRLSCAASGSIFGYYAMGWYRQAPGKERELVAAISSGGNTNYADSVKGRFTISRDNAKNTVYLQMNSLKPEDTAVYYCATRARYKRIRYDYWGQGTQVTVSS	high polyreactivity
QVQLVESGGGLVQAGGSLRLSCDASGRTFRYYAMGWSRQAPGKERELVAAISASGGSTFYADSVKGRFTISRDNAKNSVYLQMKSLKPEDTAVYYCAAYHYCVFPYKQYDYWGQGTQVTVSS	high polyreactivity
QVQLVESGGGLVQAGGSLRLSCAASGRIFKPYVMGWYRQAPGKERELVASITWNGGRTYYADSVKGRFTISRDNAKNTVYLQMNSLKPEDTAVYYCAADYWTTADPRNIIKYDYWGQGTQVTVSS	high polyreactivity
QVQLVESGGGLVQAGGSLRLSCAASGRTFPYNAMGWYRQAPGKERELVAAISSGGSTNYADSVKGRFTISRDNAKNTVYLQMNSLKPEDTAVYYCAVTGWPRYTWYSYGYWGQGTQVTVSS	low polyreactivity
QVQLVESGGGLVQAGGSLRLSCAASGLILRKYAMGWYRQAPGKEREFVAAITQTGSRTYYADSVKGRFTISRDNAKNPVYLQMNSLKPEDTAVYYCAADLPRWGSYGYGKMDHWGQGTQVTVSS	high polyreactivity
QGQLVESGGGLVQAGGSLRLSSAASGSIFFQNVMGWYRQAPGKERELVAAFSSSGDSTYYADSVKGRFTISRDNAKNTVYLQMISLKPEDTAVYYCAAEPEYVSGPYDYWGQGTQVTVSS	low polyreactivity
QVQLVESGGGLVQAGGSLRLSCAASGFIFTRYAMGWYRQAPGKERELVAAITRSGGRTYYADSVKGRFTISRDNAKNTVYLQMNSLKPEDTAVYYCAAEGSVGLYGLIMHYWGLGTQVTVSS	high polyreactivity
QVQLVESGGGLVQAGGTLRLTCAASGRIFNSNDMRWYRQAPGKERELVASISPNTGTTYYADSVKGRFTISRDNAKNTVYLQMNSLKPEDTAVYYCAARGVYYQDGLVTGEAEYGYWGQGTQVTVSS	low polyreactivity
QVKLVESAGGLVKAGGSLRLSSAASGITFNLYAMGCYSQSPGKERELVAAISWSGGSTYYADSVKGRFTISREHAKNTVYLQMNSLNQEDTAVYYCAAAWDYSAPYTYIYDYWGLGTQVTVSS	low polyreactivity
